Laboratory results: publication PMC3683130

Molecular target: FLAG-tagged PUD-1 (C. elegans)
Test: affinity purification with mass spectrometry; anti-FLAG IP (M2 beads) from worms with single-copy FLAG::PUD-1, N2 as control; eluted with 3xFLAG peptide; silver-stained bands cut and identified by LC-MS/MS

Sequence of FLAG-tagged PUD-1 (C. elegans) (main, as listed by the source): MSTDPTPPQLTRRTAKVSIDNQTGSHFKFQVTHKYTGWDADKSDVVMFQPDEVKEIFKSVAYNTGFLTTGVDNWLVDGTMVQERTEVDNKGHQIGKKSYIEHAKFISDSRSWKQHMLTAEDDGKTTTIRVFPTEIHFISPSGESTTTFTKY

stoichiometry N: 1
Substance: Endogenous PUD-2 (natural protein)
